According to publication doi:10.1101/2024.11.27.625426 (bioRxiv, 2024):

Target: unmodified NA of A/Vietnam/1203/2004 (VN04, H5N1) (Influenza A virus A/Vietnam/1203/2004 …, UniProt Q6DPL2)
Assay: ELISA
Conditions: both partners purified

Row | Binder | binding result
1 | NCS.1.1 mAb (IgG) (antibody, V domains shown, copies: 2 + 2) VH: QVQLQESGPRLVKPSETLSLTCSVSGESISSGGYYWTWIRQHPGKGLEWIGNIFDTGSTDYSPSLKTRLTISIDTSKNQFYLRLNSATAADTAVYYCARVGFSLETDRPYYLGLDVWGQGTTVTVSS VL: DIVMTQSPLSLPVTPGEPASISCRSSQSLLHSNGYTYLDWYLQKPGQSPQLLISFTSNRASGVPDRFSGSGSGTYFTLKISRVEAEDVGVYYCMQAVQTPWTFGQGTKVEIK | binds
2 | NCS.1.3 mAb (IgG) (antibody, V domains shown, copies: 2 + 2) VH: QVQLQESGPRLVKPSETLSLTCSVSGESISSGGYYWTWIRQHPGKGLEWIGNIFDTGSTDYSPSLKTRLTISIDTSKNQFYLRLTSATAADTAVYYCARVGFSLETDRPYYLGLDVWGQGTTVTVSS VL: DIVMTQSPLTLPVTPGEPASISCRSSQSLLHSNGYTYLDWYLQKPGQSPQLLIYFASNRASGVPDRFSGSGSGTYFTLKISRVEAEDVGVYYCMQAVQSPWTFGQGTKVEIK | binds
